Assay results from patent US20230391863A1 (published 2023).

Columns and labels:
[1] = biological target: A109 (SEQ ID NOs: 39 & 17) (Homo sapiens (Human), UniProt P0DOX7 1-214); experiment: BLI (Octet RED96), affinity-purified antagonist captured on biosensor, ligand in solution
Experimental: (§1) In this example, the human ligand binding activities of several bifunctional antagonist molecules were measured by biolayer interferometry (BLI) using Octet RED96 (FortéBIO, Pall Corporation, USA). Binding analysis was performed by capturing the polypeptide bifunctional antagonists to biosensors. To measure the rate of association and dissociation, the bifunctional antagonists-captured biosensors were dipped in wells containing different concentrations of ligands (such as TNF-α, Activin A, Activin B, Activin AB, myostatin, and GDF-11) diluted in 1× kinetic buffer for 10 min followed by 10-20 min in 1× kinetic buffer. The bifunctional polypeptide antagonists-captured sensors were also submerged in wells containing 1× kinetic buffer to allow single reference subtraction in order to compensate for natural dissociation of the captured bifunctional antagonists. The binding sensorgrams were collected using the 8-channel detection mode on the biosensor. Data were acquired and analyzed using the FortéBIO data acquisition software v11.1 (FortéBIO, Pall Corporation, USA).

[2] = biological target: A110 (SEQ ID NOs: 41 & 17) (Homo sapiens (Human), UniProt P0DOX7 1-214); experiment: as above
Experimental: as §1

Kd [1]: ~0.52 nM
Kd [2]: ~0.16 nM
B1: human Activin A (ligand)
chain: GLECDGKVNICCKKQFFVSFKDIGWNDWIIAPSGYHANYCEGECPSHIAGTSGSSLSFHSTVINHYRMRGHSPFANLKSCCVPTKLRPMSMLYYDDGQNIIKKDIQNMIVEECGCS
modifications: Activin A is a disulfide-linked homodimer of two identical inhibin beta A chains. The chain is given once.
